Blank lines part the entries; values can stand above or below the molecule they belong to.
Columns and labels:
hVEGF121-G92A = target: T1, hVEGF121-G92A (human, UniProt P15692-9 27-147, G92A); test: sandwich ELISA, antibody coated
T1 construct: Transiently expressed in CHO-K1 cells; culture supernatant used
T1 sequence (looked up): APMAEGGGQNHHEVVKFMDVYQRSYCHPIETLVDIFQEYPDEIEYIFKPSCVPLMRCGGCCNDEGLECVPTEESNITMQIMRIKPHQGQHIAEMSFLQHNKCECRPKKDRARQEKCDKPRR
Description: (§1) Mutants were transiently expressed in CHO-K1 cells, and cell supernatants were collected for binding analysis by ELISA.
(§2) The plate was blocked with 30% ChemiBlock™ reagent (Millipore) in PBS for one hour at room temperature, and 30, 60, or 100 μl of CHO-K1 culture supernatant for each mutant, or 1 μg/ml of wild-type hVEGF₁₂₁, recombinant hVEGF₁₆₅, or recombinant mVEGF₁₆₅, was added to appropriate wells. After one hour of incubation, the plate was washed and incubated with a biotinylated goat polyclonal anti-VEGF antibody for one hour at room temperature. Detection was performed with HRP-conjugated streptavidin, followed by TMB chromogenic substrate (Calbiochem) using manufacturer protocol.

hVEGF121-Q89A = target: T2, hVEGF121-Q89A (human, UniProt P15692-9 27-147, Q89A); test: sandwich ELISA, antibody coated
T2 construct: Transiently expressed in CHO-K1 cells; culture supernatant used
T2 sequence (looked up): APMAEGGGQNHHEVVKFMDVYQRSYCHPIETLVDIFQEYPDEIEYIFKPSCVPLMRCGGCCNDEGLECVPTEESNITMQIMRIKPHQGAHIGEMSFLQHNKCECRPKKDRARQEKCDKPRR
Description: as §1, §2

hVEGF121-M81A = target: T3, hVEGF121-M81A (human, UniProt P15692-9 27-147); test: sandwich ELISA, antibody coated
T3 construct: Transiently expressed in CHO-K1 cells; culture supernatant used
T3 sequence (looked up): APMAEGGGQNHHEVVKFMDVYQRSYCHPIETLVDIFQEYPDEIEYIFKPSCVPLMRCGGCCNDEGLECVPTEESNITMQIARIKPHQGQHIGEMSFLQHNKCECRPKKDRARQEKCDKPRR
Description: as §1, §2

wild-type hVEGF121 = target: T4, wild-type hVEGF121 (human, UniProt P15692-9 27-147); test: sandwich ELISA, antibody coated
T4 sequence (looked up): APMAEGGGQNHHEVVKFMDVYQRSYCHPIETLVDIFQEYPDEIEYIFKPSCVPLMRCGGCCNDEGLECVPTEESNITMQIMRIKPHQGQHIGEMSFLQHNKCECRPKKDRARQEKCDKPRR
Description: as §1, §2

hVEGF121-G88S = target: T5, hVEGF121-G88S (human, UniProt P15692-9 27-147, G88S); test: sandwich ELISA, antibody coated
T5 construct: Transiently expressed in CHO-K1 cells; culture supernatant used
T5 sequence (looked up): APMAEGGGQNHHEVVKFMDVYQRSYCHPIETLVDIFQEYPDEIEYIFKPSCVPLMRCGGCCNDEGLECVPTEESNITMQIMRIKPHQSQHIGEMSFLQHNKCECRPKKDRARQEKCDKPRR
Description: as §1, §2

murine VEGF165 = target: T6, murine VEGF165 (murine, UniProt Q00731-2 27-190); test: sandwich ELISA, antibody coated
T6 construct: also called mVEGF165; rMu-VEGF165
T6 sequence (looked up): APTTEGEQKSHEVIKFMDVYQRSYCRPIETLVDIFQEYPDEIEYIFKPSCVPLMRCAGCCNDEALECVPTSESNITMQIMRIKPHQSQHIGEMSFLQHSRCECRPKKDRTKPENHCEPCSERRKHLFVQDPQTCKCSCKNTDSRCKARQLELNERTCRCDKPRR
Description: as §1, §2

human VEGF165 [1] = target: T7, human VEGF165 (human, UniProt P15692 207-395); test: sandwich ELISA, antibody coated
Description: as §1, §2

human VEGF165 [2] = target: T7, human VEGF165; test: cell-based or functional assay
human VEGF165 [3] = target: T7, human VEGF165; test: Biacore (SPR)
human VEGF165 [4] = target: T7, human VEGF165; test: Biacore 2000, hVEGF165 amine-coupled on C1 chip, antibody injected, 1:1 fit
Description: The VEGF binding affinity of these IgGs was tested on a Biacore 2000® by injecting the antibodies over a very low density antigen surface. Human or murine VEGF₁₆₅ was immobilized via standard amine coupling methods to flow cells on a C1 (planar carboxy surface) chip. Approximately 85 RU of each antigen was immobilized and a reference flow cell was activated and blocked. Antibodies were injected over the chip surface for 400 seconds at two different concentrations, after which dissociation was monitored. Data was analyzed by Scrubber® using double referencing and fitting with a 1:1 interaction. Regenerations were performed with 90 mM HCl with 500 mM NaCl.
Target sequence in this assay (P15692 other isoform, or with tags, fused parts or gaps limits assumed): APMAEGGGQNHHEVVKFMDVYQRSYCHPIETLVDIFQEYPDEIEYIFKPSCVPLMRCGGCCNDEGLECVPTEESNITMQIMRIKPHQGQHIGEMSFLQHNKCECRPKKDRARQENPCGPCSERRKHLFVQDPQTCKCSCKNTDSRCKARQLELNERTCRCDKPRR

human VEGF165 [5] = target: T7, human VEGF165; test: cell-based or functional assay; remark: listed apart in the source
Target sequence in this assay (P15692 other isoform, or with tags, fused parts or gaps limits assumed): as above

B1: Bevacizumab (antibody, V domains shown)
VH: EVQLVESGGGLVQPGGSLRLSCAASGYTFTNYGMNWVRQAPGKGLEWVGWINTYTGEPTYAADFKRRFTFSLDTSKSTAYLQMNSLRAEDTAVYYCAKYPHYYGSSHWYFDVWGQGTLVTVSS
VL: DIQMTQSPSSLSASVGDRVTITCSASQDISNYLNWYQQKPGKAPKVLIYFTSSLHSGVPSRFSGSGSGTDFTLTISSLQPEDFATYYCQQYSTVPWTFGQGTKVEIK
- Raw data (ELISA signal) (murine VEGF165): 0.0843

B2: XPA.10.064 scFv-Fc (Fc fusion, part only; not given: linker, gamma-2 Fc, junction, not shown: another chain or arm of the molecule; a dimerising Fc or GST; small tags and cut ends)
VH: EVQLVQSGAEVRKPGASVKVSCKASGYSFTGHYIHWVRQAPGQGLEWMGWINPYSGGTNFPREFQGRVTMTRDTSVNTVYMELTRLTSDDTSVYYCARDHRIVGGLDYWGQGTLVTVSS
VL: SYVLTQPPSASGTPGQRVTISCSGSSSNIGINYVYWYQQLPGTAPKLLIYRNDQRPSGVPDRFSGSKSGTSASLAISGLRSEDEADYYCATWDDSLSGVVFGGGTKVTVL
- HPP: sf21-hVEGF165, scFvFc (IC50) (human VEGF165 [2]): 0.41 µg/mL

B4: XPA.10.064.03 IgG2 (antibody, V domains shown)
VH: EVQLVQSGAEVRKPGASVKVSCKASGYSFTGHYIHWVRQAPGQGLEWMGWINPYSGGTNFPREFQGRVTMTRDTSVNTVYMELTRLTSDDTSVYYCARDQMVHGGLDYWGQGTLVTVSS
VL: SYVLTQPPSASGTPGQRVTISCSGSSSNIGINYVYWYQQLPGTAPKLLIYRNDQRPSGVPDRFSGSKSGTSASLAISGLRSEDEADYYCATWDDSLSGVVFGGGTKVTVL
notes: IgG2
- Kd (human VEGF165 [4]): 0.0917 nM
- koff (human VEGF165 [4]): 1.8e-05 s⁻¹
- kon (human VEGF165 [4]): 196000 M⁻¹ s⁻¹
- HUVEC proliferation, geometric mean IC50 (human VEGF165 [5]): 0.174 nM

Continued, values first:

- Raw data (ELISA signal) (hVEGF121-G92A): 2.18
- fold binding over CHO background (hVEGF121-G92A): 23.9 fold
- Raw data (ELISA signal) (hVEGF121-Q89A): 0.985
- fold binding over CHO background (hVEGF121-Q89A): 10.8 fold
- Raw data (ELISA signal) (hVEGF121-M81A): 1.71
- fold binding over CHO background (hVEGF121-M81A): 18.8 fold
- Raw data (ELISA signal) (wild-type hVEGF121): 2.56
- fold binding over CHO background (wild-type hVEGF121): 28 fold
- Raw data (ELISA signal) (hVEGF121-G88S): 0.769
- fold binding over CHO background (hVEGF121-G88S): 8.4 fold
- Raw data (ELISA signal) (murine VEGF165): 0.0939
- fold binding over CHO background (murine VEGF165): 1 fold
- Raw data (ELISA signal) (human VEGF165 [1]): 2.45
- fold binding over CHO background (human VEGF165 [1]): 26.9 fold
Molecule: control polyclonal goat anti-human VEGF (antibody)

- binding result (human VEGF165 [3]): binds
B3: XPA.10.064 after oxidation with tert-butylhydroperoxide (antibody, V domains shown)
VH: EVQLVQSGAEVRKPGASVKVSCKASGYSFTGHYIHWVRQAPGQGLEWMGWINPYSGGTNFPREFQGRVTMTRDTSVNTVYMELTRLTSDDTSVYYCARDHRIVGGLDYWGQGTLVTVSS
VL: SYVLTQPPSASGTPGQRVTISCSGSSSNIGINYVYWYQQLPGTAPKLLIYRNDQRPSGVPDRFSGSKSGTSASLAISGLRSEDEADYYCATWDDSLSGVVFGGGTKVTVL
modifications: partial methionine oxidation after tBHP: Met-48 39%, Met-70 0%, Met-81 28%
notes: also called oxidized XPA.10.064

Reference: patent US20110097340A1 (SCHERING, published 2011)
